The source of these data is article PMC6643279 (Biochemistry, 2018).

Holding throughout (assay): purified protein
Data set [1] concerns CC(=O)OCC(COP(=O)(O)O)OC(C)=O. As to conditions: pH 8.0; 30.0 °C.
The subject of data set [2] is CC(=O)Oc1c[nH]c2ccccc12. The settings on record: pH 8.3; 30.0 °C.
Data set [3] relates to CC(=O)Oc1ccc2ccccc2c1. As to conditions: pH 8.0; 30.0 °C.

Take “phosphotriesterase homology protein (PHP) (Escherichia coli K-12)”: the Michaelis-Menten constant (Km) – broadly, the substrate concentration at which the rate is half of its maximum – stood at 6000 ± 500 µM in data set [1], 1800 ± 200 µM in data set [2] and 1800 ± 200 µM in data set [3]. For the same substance, the values for the specificity constant (kcat/Km) in data set [1], in data set [2] and in data set [3] were 4600 ± 650 M⁻¹ s⁻¹, 180 ± 20 M⁻¹ s⁻¹ and 1400 ± 200 M⁻¹ s⁻¹, respectively.
